In publication PMC3998870 (Nature, 2014):

B5: VirB10/TrwE with a C-terminal StrepII tag (natural protein, Escherichia coli plasmid R388, UniProt O50337 1-395, looked up)
chain: MFGRKKGDVIDAGAELERAEQERIEGEYGASELASERRPHTPGARTLLMVLLCVIAVVLVTLSYKAYKVRGVVEDDDAQPQQVVRQVIPGYTPRPIRPEPENVPEPPQPTTSVPAIQPAPVTQPVRPQPTGPREKTPYELARERMLRSGLTAGSGGGEDLPRPQGGDVPAGGLMGGGGGGGELAEKLQPMRLSGSSAGRLGNRDMLITQGTQLDCVLETRLVTTQPGMTTCHLTRDVYSTSGRVVLLDRGSKVVGFYQGGLRQGQARIFVQWSRIETPSGVVINLDSPGTGPLGEAGLGGWIDRHFWERFGGAIMISLIGDLGDWASRQGSRQGNNSIQFSNTANGVESAAAEALRNSINIPPTLYKNQGERVNILVARDLDFSDVYSLESIPTK

Legend:
[1] = target: VirB10/TrwE with a C-terminal StrepII tag (Escherichia coli plasmid R388) (UniProt O50337); assay: tandem affinity purification with 125I labelling of tyrosines and SDS-PAGE
[2] = target: VirB4/TrwK (untagged, in the T4SS3-10 complex) (Escherichia coli plasmid R388) (UniProt O50330); assay: negative stain EM reconstruction
[3] = target: T1, VirB4/TrwK with a C-terminal StrepII tag (Escherichia coli plasmid R388, UniProt O50330 1-823); assay: SEC
T1 sequence (looked up): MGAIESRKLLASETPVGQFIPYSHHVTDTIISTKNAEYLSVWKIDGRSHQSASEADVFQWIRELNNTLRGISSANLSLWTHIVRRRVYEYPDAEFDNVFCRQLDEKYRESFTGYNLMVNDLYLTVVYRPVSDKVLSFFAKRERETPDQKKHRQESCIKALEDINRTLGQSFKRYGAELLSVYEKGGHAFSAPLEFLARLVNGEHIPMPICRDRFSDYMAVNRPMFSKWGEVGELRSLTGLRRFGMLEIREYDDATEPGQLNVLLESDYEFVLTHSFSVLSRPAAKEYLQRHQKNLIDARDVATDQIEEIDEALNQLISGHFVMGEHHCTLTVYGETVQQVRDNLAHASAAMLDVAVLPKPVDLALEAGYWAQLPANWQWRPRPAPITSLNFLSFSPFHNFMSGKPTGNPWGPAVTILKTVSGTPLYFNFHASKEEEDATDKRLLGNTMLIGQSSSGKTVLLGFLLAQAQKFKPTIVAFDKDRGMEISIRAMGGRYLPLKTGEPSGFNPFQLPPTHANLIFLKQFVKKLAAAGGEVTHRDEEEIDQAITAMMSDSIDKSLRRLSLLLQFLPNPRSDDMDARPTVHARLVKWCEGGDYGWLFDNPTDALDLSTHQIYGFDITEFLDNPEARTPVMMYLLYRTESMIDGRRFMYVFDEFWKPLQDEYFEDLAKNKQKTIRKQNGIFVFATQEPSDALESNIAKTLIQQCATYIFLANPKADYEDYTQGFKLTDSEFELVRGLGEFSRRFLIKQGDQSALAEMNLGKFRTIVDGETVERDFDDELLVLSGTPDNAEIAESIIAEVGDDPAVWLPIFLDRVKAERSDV

[4] = target: B5; assay: tandem affinity purification with 125I labelling of tyrosines and SDS-PAGE
[5] = target: the molecule itself; assay: co-purification

VirB6/TrwI with an N-terminal His6 tag (natural protein)
copies in the complex, calibrated on 14 copies of VirB10/TrwE [1]: 23.8 copies

VirB4/TrwK (untagged, in the T4SS3-10 complex) (from UniProt O50330 1-823) (enzyme)
stoichiometry N [2]: 6

B1: VirB3/TrwM (natural protein, Escherichia coli plasmid R388, UniProt O50329 1-104, looked up)
chain: MKPPQQQHEAFPLFKGATRLPTILGEPMIPLMAMVMGVAVIALTVSIWWWALVPPLWFIMAQITKNDDKAFRIWWLWIDTKFRNRNKGFWGASSYSPANYRKRR
stoichiometry N [3]: 1

B2: VirB5/TrwJ (natural protein, Escherichia coli plasmid R388, UniProt O50331 23-226, looked up)
chain: QGIPVFDGTRALDFVQQFARMKEQLDTAKDQLAEAQRMYEAVTGGRGLGDLMRNAQLREYLPDDLRTVYDSANGGGYSGISGSINDILRDERLNGSVADMRRSIEERSRTARTTDKAVGCGPTKGHSNASRRLKDEISRTQDQKAIEELQARIAGEQAAIQNETTKLQMIAQLRQAEQALISEQRRERNMPILSSGNQGMPTIQ
copies in the complex, calibrated on 14 copies of VirB10/TrwE [4]: 11.9 copies

B3: VirB4/TrwK (untagged, in the T4SS3-10 complex) (enzyme, Escherichia coli plasmid R388, UniProt O50330 1-823, looked up)
chain: MGAIESRKLLASETPVGQFIPYSHHVTDTIISTKNAEYLSVWKIDGRSHQSASEADVFQWIRELNNTLRGISSANLSLWTHIVRRRVYEYPDAEFDNVFCRQLDEKYRESFTGYNLMVNDLYLTVVYRPVSDKVLSFFAKRERETPDQKKHRQESCIKALEDINRTLGQSFKRYGAELLSVYEKGGHAFSAPLEFLARLVNGEHIPMPICRDRFSDYMAVNRPMFSKWGEVGELRSLTGLRRFGMLEIREYDDATEPGQLNVLLESDYEFVLTHSFSVLSRPAAKEYLQRHQKNLIDARDVATDQIEEIDEALNQLISGHFVMGEHHCTLTVYGETVQQVRDNLAHASAAMLDVAVLPKPVDLALEAGYWAQLPANWQWRPRPAPITSLNFLSFSPFHNFMSGKPTGNPWGPAVTILKTVSGTPLYFNFHASKEEEDATDKRLLGNTMLIGQSSSGKTVLLGFLLAQAQKFKPTIVAFDKDRGMEISIRAMGGRYLPLKTGEPSGFNPFQLPPTHANLIFLKQFVKKLAAAGGEVTHRDEEEIDQAITAMMSDSIDKSLRRLSLLLQFLPNPRSDDMDARPTVHARLVKWCEGGDYGWLFDNPTDALDLSTHQIYGFDITEFLDNPEARTPVMMYLLYRTESMIDGRRFMYVFDEFWKPLQDEYFEDLAKNKQKTIRKQNGIFVFATQEPSDALESNIAKTLIQQCATYIFLANPKADYEDYTQGFKLTDSEFELVRGLGEFSRRFLIKQGDQSALAEMNLGKFRTIVDGETVERDFDDELLVLSGTPDNAEIAESIIAEVGDDPAVWLPIFLDRVKAERSDV
copies in the complex, calibrated on 14 copies of VirB10/TrwE [4]: 11.5 copies

B4: VirB8/TrwG (natural protein, Escherichia coli plasmid R388, UniProt O50335 1-231, looked up)
chain: MSKKQPKPVKAEQLKSYYEESRGLERDLIGEFVKSRKTAWRVATASGLFGLLGMVCGIVGFSQPAPAPLVLRVDNATGAVDVVTTLREHESSYGEVVDTYWLNQYVLNREAYDYNTIQMNYDTTALLSAPAVQQDYYKLFDGSNARDRVLGNKARITVRVRSIQPNGRGQATVRFTTQQHNSNGTVERPQHQIATIGYTYIGAPMRSSDRLLNPLGFQVTSYRADPEILNN
copies in the complex, calibrated on 14 copies of VirB10/TrwE [4]: 12.6 copies

B5
stoichiometry N [5]: 14
